According to the RNAGym collection of RNA variant scans (doi:10.7554/elife.80360):

B1: CPEB3 Ribozyme (parent)
chain: GGGGGCCACAGCAGAAGCGUUCACGUCGCGGCCCCUGUCAGAUUCUGGUGAAUCUGCGAAUUCUGCUGU

Variants of: B1
Assay: self-cleavage, relative activity (ratio to wild type); higher = more cleavage; co-transcriptional

Variant	self-cleavage
GGGCGCCACAGCAGAAGCGUUCACGUCGCGGCCCCUGUCAGAUUUUGGUGAAUCUGCGAAUUCUGCUGU [G4C C45U]	0.733
GGGCGCCACAGCAAAAGCGUUCACGUCGCGGCCCCUGUCAGAUUCUGGUGAAUCUGCGAAUUCUGCUGU [G4C G14A]	0.223
GGGCGCCACAGCAUAAGCGUUCACGUCGCGGCCCCUGUCAGAUUCUGGUGAAUCUGCGAAUUCUGCUGU [G4C G14U]	0.149
GGGCGCCACAGCACAAGCGUUCACGUCGCGGCCCCUGUCAGAUUCUGGUGAAUCUGCGAAUUCUGCUGU [G4C G14C]	0.101
GGGCGCCACAGCAGAAGCGUUCACGUCGCGGCCCCUGUCAGAUUCUGGUGAAUCUGCGAAUUCUGUUGU [G4C C66U]	0.678
GGGCGCCACAGCAGAAGCGUUCACGUCGCGGCCCCUGUCAGAUUCUGGUGAAUCUGCGAAUUCUGGUGU [G4C C66G]	0.229
GGGCGCCACAGCAGAAGCGUUCACGUCGCGGCCCCUGUCAGAUUCUGGUGAAUCUGCGAAUUCUGAUGU [G4C C66A]	0.396
GGGCGCCACAGCAGAAGCGUUCACGUCGCGGCCCCUAUCAGAUUCUGGUGAAUCUGCGAAUUCUGCUGU [G4C G37A]	0.124
GGGCGCCACAGCAGAAGCGUUCACGUCGCGGCCCCUCUCAGAUUCUGGUGAAUCUGCGAAUUCUGCUGU [G4C G37C]	0.068
GGGCGCCACAGCAGAAGCGUUCACGUCGCGGCCCCUUUCAGAUUCUGGUGAAUCUGCGAAUUCUGCUGU [G4C G37U]	0.0878
GGGCGCCACAGCAGAAGCGUUCACGUCGCGGCCCCUGUCAGAUUCUGGUAAAUCUGCGAAUUCUGCUGU [G4C G50A]	0.654
GGGCGCCACAGCAGAAGCGUUCACGUCGCUGCCCCUGUCAGAUUCUGGUGAAUCUGCGAAUUCUGCUGU [G4C G30U]	0.0789
GGGCGCCACAGCAGAAGCGUUCACGUCGCAGCCCCUGUCAGAUUCUGGUGAAUCUGCGAAUUCUGCUGU [G4C G30A]	0.0414
GGGCGCCACAGCAGAACCGUUCACGUCGCGGCCCCUGUCAGAUUCUGGUGAAUCUGCGAAUUCUGCUGU [G4C G17C]	0.0898
GGGCGCCACAGCAGAAGCGUUCACGUCGCGGCCCCUGUCAGAUUCUAGUGAAUCUGCGAAUUCUGCUGU [G4C G47A]	0.674
GGGCGCCACAGCAGAAGCGUUCACGUCGCGGCCCCUGUCAGAUUCUUGUGAAUCUGCGAAUUCUGCUGU [G4C G47U]	0.638
GGGCGCCACAGCAGAAGCGUUCACCUCGCGGCCCCUGUCAGAUUCUGGUGAAUCUGCGAAUUCUGCUGU [G4C G25C]	0.102
GGGCGCCACAGCAGAAGCGUUCACUUCGCGGCCCCUGUCAGAUUCUGGUGAAUCUGCGAAUUCUGCUGU [G4C G25U]	0.0499
GGGCGCCACAGCAGAAGCGUUCACAUCGCGGCCCCUGUCAGAUUCUGGUGAAUCUGCGAAUUCUGCUGU [G4C G25A]	0.0767
GGGCGCCACACCAGAAGCGUUCACGUCGCGGCCCCUGUCAGAUUCUGGUGAAUCUGCGAAUUCUGCUGU [G4C G11C]	0.273

Variant	self-cleavage
GGGCGCCACAACAGAAGCGUUCACGUCGCGGCCCCUGUCAGAUUCUGGUGAAUCUGCGAAUUCUGCUGU [G4C G11A]	0.375
GGGCGCCACAUCAGAAGCGUUCACGUCGCGGCCCCUGUCAGAUUCUGGUGAAUCUGCGAAUUCUGCUGU [G4C G11U]	0.262
GGGCGCCACAGCAGAAGCGUUCACGUCGCGGCCCCUGUCAGAUUCUGGUGAAUCUGCGAAUUAUGCUGU [G4C C63A]	0.217
GGGCGCCACAGCAGAAGCGUUCACGUCGCGGCCCCUGUCAGAUUCUGGUGAAUCUGCGAAUUUUGCUGU [G4C C63U]	0.584
GGGCGCCACAGCAGAAGCGUUCACGUCGCGGCCCCUGUCAGAUUCUGUUGAAUCUGCGAAUUCUGCUGU [G4C G48U]	0.755
GGGCGCCACAGCAGAAGCGUUCACGUCGCGGCCCCUGUCAGAUUCUGCUGAAUCUGCGAAUUCUGCUGU [G4C G48C]	0.675
GGGCGCCACAGCAGAAGCGUUCACGUCGCGGCCCCUGUCAGAUUCUGGUGAAUCUGAGAAUUCUGCUGU [G4C C57A]	0.136
GGGCGCCACAGCAGAAGCAUUCACGUCGCGGCCCCUGUCAGAUUCUGGUGAAUCUGCGAAUUCUGCUGU [G4C G19A]	0.0646
GGGCCCCACAGCAGAAGCGUUCACGUCGCGGCCCCUGUCAGAUUCUGGUGAAUCUGCGAAUUCUGCUGU [G4C G5C]	0.212
GGGCUCCACAGCAGAAGCGUUCACGUCGCGGCCCCUGUCAGAUUCUGGUGAAUCUGCGAAUUCUGCUGU [G4C G5U]	0.0341
GGGCGCCACAGCAGAAGCGUUCACGUCCCGGCCCCUGUCAGAUUCUGGUGAAUCUGCGAAUUCUGCUGU [G4C G28C]	0.0443
GGGCGCCACAGCAGAAGCGUUCACGUCUCGGCCCCUGUCAGAUUCUGGUGAAUCUGCGAAUUCUGCUGU [G4C G28U]	0.109
GGGCGCCACAGCAGAAGCGUUCACGUCACGGCCCCUGUCAGAUUCUGGUGAAUCUGCGAAUUCUGCUGU [G4C G28A]	0.0907
GGGCGCCACAGCAGAAGCGUUCACGUCGCGGCCCCUGUCAGAUUCUGGUGAAUGUGCGAAUUCUGCUGU [G4C C54G]	0.175
GGGCGCCACAGCAGAAGCGUUCACGUCGCGGCCCCUGUCAGAUUCUGGUGAAUAUGCGAAUUCUGCUGU [G4C C54A]	0.225
GGGCGCCACAGCAGAAGCGUUCACGUCGCGGCCCCUGUCAGAUUCUGGUGAAUUUGCGAAUUCUGCUGU [G4C C54U]	0.562
GGGCGCCACAGCAGAAGCGUUCACGUCGCGGCCCCUGUCAAAUUCUGGUGAAUCUGCGAAUUCUGCUGU [G4C G41A]	0.0714
GGGCGCCACAGCAGAAGCGUUCACGUCGCGGCCCCUGUCACAUUCUGGUGAAUCUGCGAAUUCUGCUGU [G4C G41C]	0.146
GGGCGCCACAGCAGAAGCGUUCACGUCGCGCCCCCUGUCAGAUUCUGGUGAAUCUGCGAAUUCUGCUGU [G4C G31C]	0.105
